Publication PMC10439943, “SCF^RMF mediates degradation of the meiosis-specific recombinase DMC1” (Nature Communications, 2023)
Positions count from the first letter of the chain named. One block for each binder: values may come before it.

Tests used:
Assay in all cases: pull-down; 2 µg of each GST-, HIS- or MBP-tagged protein mixed in 50 mM Tris-HCl pH 7.4, 150 mM NaCl, 25 mM imidazole, 0.5% NP-40, 4 °C 4 h; HIS-tagged protein captured on Ni-NTA HIS Bind Resin; western blot
Conditions in all cases: both partners purified
SUMO-HIS-RMF1 = biological target: T1, SUMO-HIS-RMF1 (Arabidopsis thaliana, UniProt Q9M365 1-359)
T1 construct: RMF1, F-box protein, Arabidopsis thaliana, AGI AT3G61730; CDS cloned into pSUMO (on pET28a); also called AT3G61730; not shown: SUMO, N-terminal, kept; HIS, N-terminal, kept
T1 sequence (looked up): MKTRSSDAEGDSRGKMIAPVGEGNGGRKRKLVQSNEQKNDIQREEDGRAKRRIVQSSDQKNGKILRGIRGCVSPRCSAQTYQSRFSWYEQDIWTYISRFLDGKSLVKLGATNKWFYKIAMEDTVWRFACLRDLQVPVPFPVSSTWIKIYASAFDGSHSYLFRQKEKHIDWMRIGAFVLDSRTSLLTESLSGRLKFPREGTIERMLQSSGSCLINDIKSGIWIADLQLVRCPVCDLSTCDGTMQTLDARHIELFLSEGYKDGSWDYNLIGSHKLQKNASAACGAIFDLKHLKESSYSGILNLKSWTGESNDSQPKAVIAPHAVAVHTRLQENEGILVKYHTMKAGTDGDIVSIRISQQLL

SUMO-HIS-RMF2 = biological target: T2, SUMO-HIS-RMF2 (Arabidopsis thaliana, UniProt Q9FGB8 1-355)
T2 construct: RMF2, F-box protein, Arabidopsis thaliana, AGI AT5G36000; CDS cloned into pSUMO (on pET28a); also called AT5G36000; not shown: SUMO, N-terminal, kept; HIS, N-terminal, kept
T2 sequence (looked up): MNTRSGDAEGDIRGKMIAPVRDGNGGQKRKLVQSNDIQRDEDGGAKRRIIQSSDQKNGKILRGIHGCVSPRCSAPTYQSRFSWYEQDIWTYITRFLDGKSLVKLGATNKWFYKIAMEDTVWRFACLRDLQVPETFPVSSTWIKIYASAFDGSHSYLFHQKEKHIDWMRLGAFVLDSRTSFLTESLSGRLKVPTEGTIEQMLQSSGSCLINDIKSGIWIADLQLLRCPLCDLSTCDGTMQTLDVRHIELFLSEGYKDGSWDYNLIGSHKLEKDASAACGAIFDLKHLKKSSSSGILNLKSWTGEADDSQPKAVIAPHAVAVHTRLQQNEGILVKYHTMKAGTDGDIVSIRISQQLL

MBP-RMF2 = biological target: T3, MBP-RMF2 (Arabidopsis thaliana, UniProt Q9FGB8 1-355)
T3 construct: RMF2, F-box protein, Arabidopsis thaliana, AGI AT5G36000; CDS cloned into pMAL-c5X; also called AT5G36000; source: E. coli Rosetta (DE3) or BL21 (DE3) pLysS, purified (Amylose Resin); not shown: MBP, N-terminal, kept
T3 sequence (looked up): T2 sequence (looked up)

MBP-RMF1 = biological target: T4, MBP-RMF1 (Arabidopsis thaliana, UniProt Q9M365 1-359)
T4 construct: RMF1, F-box protein, Arabidopsis thaliana, AGI AT3G61730; CDS cloned into pMAL-c5X; also called AT3G61730; source: E. coli Rosetta (DE3) or BL21 (DE3) pLysS, purified (Amylose Resin); not shown: MBP, N-terminal, kept
T4 sequence (looked up): T1 sequence (looked up)

binding result (SUMO-HIS-RMF1): binds | binding result (SUMO-HIS-RMF2): binds
B1: GST-ASK1 (natural protein, Arabidopsis thaliana, UniProt Q39255 1-160, looked up)
chain: MSAKKIVLKSSDGESFEVEEAVALESQTIAHMVEDDCVDNGVPLPNVTSKILAKVIEYCKRHVEAAASKAEAVEGAATSDDDLKAWDADFMKIDQATLFELILAANYLNIKNLLDLTCQTVADMIKGKTPEEIRTTFNIKNDFTPEEEEEVRRENQWAFE
notes: ASK1 (Arabidopsis Skp1-like1), Arabidopsis thaliana, AGI AT1G75950; CDS cloned into pGEX 4T-1; also called AT1G75950; not shown: GST, N-terminal, kept

binding result (MBP-RMF2): binds | binding result (MBP-RMF1): binds
B2: SUMO-HIS-DMC1 (natural protein, Arabidopsis thaliana, UniProt Q39009 1-344, looked up)
chain: MMASLKAEETSQMQLVEREENDEDEDLFEMIDKLIAQGINAGDVKKLQEAGIHTCNGLMMHTKKNLTGIKGLSEAKVDKICEAAEKIVNFGYMTGSDALIKRKSVVKITTGCQALDDLLGGGIETSAITEAFGEFRSGKTQLAHTLCVTTQLPTNMKGGNGKVAYIDTEGTFRPDRIVPIAERFGMDPGAVLDNIIYARAYTYEHQYNLLLGLAAKMSEEPFRILIVDSIIALFRVDFTGRGELADRQQKLAQMLSRLIKIAEEFNVAVYMTNQVIADPGGGMFISDPKKPAGGHVLAHAATIRLLFRKGKGDTRVCKVYDAPNLAEAEASFQITQGGIADAKD
notes: DMC1, meiosis-specific RecA-family recombinase, Arabidopsis thaliana, AGI At3G22880; CDS cloned into pSUMO (on pET28a); also called At3G22880; not shown: SUMO, N-terminal, kept; HIS, N-terminal, kept

binding result (MBP-RMF2): binds | binding result (MBP-RMF1): binds
B3: SUMO-HIS-DMC1-6KR (natural protein, Arabidopsis thaliana, UniProt Q39009 1-344, looked up)
chain: B2 chain with K45R, K46R, K70R, K101R, K162R, K290R
notes: DMC1, Arabidopsis thaliana, AGI At3G22880; CDS with all six lysines K45, K46, K70, K101, K162 and K290 changed to arginine, cloned into pSUMO (on pET28a); not shown: SUMO, N-terminal, kept; HIS, N-terminal, kept
